Results published in patent US20170088602A1 (Bristol-Myers Squibb, published 2017).

T1: human myostatin (mature, recombinant; R&D Systems) (human, UniProt O14793 267-375)
T1 construct: biotinylated in the mRNA display selection; also called GDF-8; mature myostatin
T1 sequence: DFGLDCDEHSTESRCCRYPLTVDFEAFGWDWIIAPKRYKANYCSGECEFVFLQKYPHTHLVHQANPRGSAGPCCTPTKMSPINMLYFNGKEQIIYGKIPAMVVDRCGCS

T2: human BMP-11 (GDF-11; R&D Systems) (human, UniProt O95390 299-407)
T2 sequence (looked up): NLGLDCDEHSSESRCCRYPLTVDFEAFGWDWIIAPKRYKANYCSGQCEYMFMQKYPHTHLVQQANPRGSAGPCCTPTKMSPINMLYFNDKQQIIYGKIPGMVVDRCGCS

T3: human Activin A (R&D Systems) (human, UniProt P08476 311-426)
T3 sequence (looked up): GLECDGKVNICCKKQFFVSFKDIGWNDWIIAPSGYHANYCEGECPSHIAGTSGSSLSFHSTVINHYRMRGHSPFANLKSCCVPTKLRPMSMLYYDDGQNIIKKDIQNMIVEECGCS


What was measured:
[1] = molecular target: T1, human myostatin (mature, recombinant; …); assay: SPR format A, 25C
Source text: (§1) Anti-human Fc antibody (Biacore/GE) was immobilized on a Biacore CM5 chip via NHS/EDC coupling according to the manufacturer's instructions. […] A concentration range of anti-myostatin Adnectin was applied across all flow cells in HBSP running buffer. Regeneration of the chip surface between cycles was accomplished with two 30 second pulses of 3M MgCl₂. Kinetic traces of reference-subtracted sensorgrams were fit to a 1:1 binding model using Biaevaluation software.

[2] = molecular target: T2, human BMP-11 (GDF-11; R&D Systems); assay: SPR format A, 25C
Source text: as §1

[3] = molecular target: T1, human myostatin (mature, recombinant; …); assay: cell-based or functional assay
[4] = molecular target: T2, human BMP-11 (GDF-11; R&D Systems); assay: cell-based or functional assay
[5] = molecular target: T3, human Activin A (R&D Systems); assay: cell-based or functional assay
[6] = molecular target: T1, human myostatin (mature, recombinant; …); assay: competitive HTRF (1889E01/myostatin/ActRIIb-Fc sandwich)
Source text: An HTRF assay was used to measure the binding affinities of anti-myostatin Adnectins to myostatin. […] The Eu-W 1024 labeled Streptavidin is used to bind biotinylated 1889E01. […] In the presence of a competitive Adnectin, the HTRF signal decreases.

[7] = molecular target: T1, human myostatin (mature, recombinant; …); assay: cell-based or functional assay; remark: listed apart in the source

Row | Binder | Kd [1] | Kd [2] | ARE-luciferase IC50 [3] | ARE-luciferase IC50 [4] | ARE-luciferase IC50 [5] | IC50 [6] | pSmad2 IC50, 12-point [7] | pSmad2 % inhibition at 10 nM [7] | pSmad2 IC50, 4-point [7]
1 | ATI-1275 [N-ethylmaleimide] (designed binder, N-ethylmaleimide on the Cys of the EGSGC tail, cysteine mutant of 2524_D09) MGVSDVPRDLEVVAATPTSLLISWYLPYPAHMNYYRITYGETGGNSPVQEFTVPGRGLTATISGLKPGVDYTITVYAVTLTKSQILHHRPISINYRTEGSGCHHHHHH | 0.15 nM | 0.15 nM | 0.03 nM | 0.14 nM | 19 nM | 0.19 nM |  |  | 
2 | ATI-1277 [N-ethylmaleimide] (designed binder, N-ethylmaleimide on the Cys of the EGSGC tail, cysteine mutant of 2525_D05) MGVSDVPRDLEVVAATPTSLLISWSLPYAGHLNYYRITYGETGGNSPVQEFTVPGRGVTATISGLKPGVDYTITVYAVTLTKSQLIHYMPISINYRTEGSGCHHHHHH | 0.16 nM | 0.14 nM | 0.14 nM | 1.18 nM | 2000 nM | 0.38 nM |  |  | 
3 | 2524_D09 (designed binder) MGVSDVPRDLEVVAATPTSLLISWYLPYPAHMNYYRITYGETGGNSPVQEFTVPGRGLTATISGLKPGVDYTITVYAVTLTKSQILHHRPISINYRTEIDKPSQHHHHHH | 0.64 nM | 0.81 nM | 0.06 nM | 0.55 nM | 84 nM |  | 0.11 nM |  | 
4 | 2524_H05 (designed binder) MGVSDVPRDLEVVAATPTSLLISWSLPYSGLANYYRITYGETGGNSPVQEFTVPGRGVTATISGLKPGVDYTITVYAVTLTHSNIIRYVPISINYRTEIDKPSQHHHHHH | 0.88 nM | 0.87 nM | 0.09 nM | 7.3 nM | > 1000 nM |  | 0.13 nM |  | 
5 | 2525_B01 (designed binder) MGVSDVPRDLEVVAATPTSLLISWTLPNFGLINYYRITYGETGGNSPVQEFTVPGRGVTATISGLKPGVDYTITVYAVTITKSTIIIYKPISINYRTEIDKPSQHHHHHH | 1.29 nM | 1.58 nM | 0.11 nM | 3.2 nM | 73 nM |  | 0.14 nM |  | 
6 | 2525_D02 (designed binder) MGVSDVPRDLEVVAATPTSLLISWTLPHAGRAHYYRITYGETGGNSPVQEFTVPGRGVTATISGLKPGVDYTITVYAVTVTTTSVILYKPISINYRTEIDKPSQHHHHHH | 0.24 nM | 0.3 nM | 0.05 nM | 1.1 nM | 345 nM |  | 0.36 nM |  | 
7 | 2525_F07 (designed binder) MGVSDVPRDLEVVAATPTSLLISWSLPYAAHMNYYRITYGETGGNSPVQEFTVPGRGVTATISGLKPGVDYTITVYAVTLTRSQVIHYMPISINYRTEIDKPSQHHHHHH | 0.79 nM | 0.97 nM | 0.13 nM | 3.4 nM | > 1000 nM |  | 0.27 nM |  | 
8 | 2987_H07 (designed binder) MGVSDVPRDLEVVAATPTSLLISWTLPHAGRAHYYRITYGETGGNSPVQEFTVPGRGVTATISGLKPGVDYTITVYAVTVTTTKVIHYKPISINYRTEIDKPSQHHHHHH | 0.99 nM | 2.25 nM | 0.02 nM | 5.5 nM | > 400 nM |  |  |  | 
9 | 2522_C09 (designed binder) MGVSDVPRDLEVVAATPTSLLISWEVPRGLARYYRITYGETGGNSPVQEFTVLGRGSTATISGLKPGVDYTITVYAVTVYRDGPLLLAPISINYRTEIDKPSQHHHHHH | 0.51 nM | 0.45 nM | 0.06 nM | 1.6 nM | 1000 nM |  | 0.13 nM |  | 
10 | 3008_G01 (designed binder) MGVSDVPRDLEVVAATPTSLLISWSLPGPGHFHYYRITYGETGGNSPVQEFTVPGRGVTATISGLKPGVDYTITVYAVTVTANQPIIYKPISINYRTEIDKPSQHHHHHH |  |  | 0.03 nM | 0.31 nM | > 2000 nM | 0.11 nM |  | 98% | 
11 | 3008_G03 (designed binder) MGVSDVPRDLEVVAATPTSLLISWSLPHPGLGHYYRITYGETGGNSPVQEFTVPGRGVTATISGLKPGVDYTITVYAVTITPETIIVYKPISINYRTEIDKPSQHHHHHH |  |  | 0.09 nM | 1.3 nM | > 2000 nM | 0.13 nM |  | 91% | 
12 | 3116_C01 (designed binder) MGVSDVPRDLEVVAATPTSLLISWSLPNPGIAHYYRITYGETGGNSPVQEFTVPGRGVTATISGLKPGVDYTITVYAVTLTGSDTIFYKPISINYRTEIDKPSQHHHHHH |  |  | 0.1 nM | 6.7 nM | 1000 nM | 0.35 nM |  |  | 0.26 nM
13 | 3116_C06 (designed binder) MGVSDVPRDLEVVAATPTSLLISWSLPRPGNAHYYRITYGETGGNSPVQEFTVPGRGVTATISGLKPGVDYTITVYAVTVTGKDVIKYKPISINYRTEIDKPSQHHHHHH |  |  | 0.14 nM | 8.9 nM | > 1000 nM | 0.18 nM |  |  | 0.73 nM
14 | 3146_A08 (designed binder) MGVSDVPRDLEVVAATPTSLLISWSLPNPGNAHYYRITYGETGGNSPVQEFTVPGRGVTATISGLKPGVDYTITVYAVTVTDTGFITYKPISINYRTEIDKPSQHHHHHH |  |  | 0.7 nM | 48 nM | > 1000 nM | 0.26 nM |  |  | 0.78 nM
15 | 3115_E06 (designed binder) MGVSDVPRDLEVVAATPTSLLISWDAPAGLARYYRITYGETGGNSPVQEFTVVGRGNTATISGLKPGVDYTITVYAVTIFRDGPVTWDPISINYRTEIDKPSQHHHHHH |  |  | 0.07 nM | 2 nM | > 1000 nM | 0.14 nM |  |  | 60 pM
16 | 3006_A10 (designed binder) MGVSDVPRDLEVVAATPTSLLISWDAPGGLARYYRITYGETGGNSPVQEFTVIGRGSTATISGLKPGVDYTITVYAVTIDRDGVNHFAPISINYRTEIDKPSQHHHHHH |  |  | 0.08 nM | 2 nM | > 2000 nM | 0.15 nM |  | 51% | 
17 | 3115_D04 (designed binder) MGVSDVPRDLEVVAATPTSLLISWDAPRGLARYYRITYGETGGNSPVQEFTVFGRGTTATISGLKPGVDYTITVYAVTIDRDGTRSFDPISINYRTEIDKPSQHHHHHH |  |  | 0.16 nM | 3.6 nM | > 1000 nM | 0.2 nM |  |  | 60 pM
18 | 3116_A07 (designed binder) MGVSDVPRDLEVVAATPTSLLISWDAPKGLARYYRITYGETGGNSPVQEFTVVGRGNTATISGLKPGVDYTITVYAVTIFRDGPVTWDPISINYRTEIDKPSQHHHHHH |  |  | 0.04 nM | 0.5 nM | > 1000 nM | 0.11 nM |  |  | 60 pM
19 | 3116_H06 (designed binder) MGVSDVPRDLEVVAATPTSLLISWDAPAGLARYYRITYGETGGNSPVQEFTVVGRGNTATISGLKPGVDYTITVYAVTIFRDGVVNYGPISINYRTEIDKPSQHHHHHH |  |  | 0.1 nM | 1.6 nM | > 1000 nM | 0.13 nM |  |  | 60 pM
20 | ATI-1267 [N-ethylmaleimide] (designed binder, N-ethylmaleimide on the Cys of the EGSGC tail, cysteine mutant of 2525_D02) MGVSDVPRDLEVVAATPTSLLISWTLPHAGRAHYYRITYGETGGNSPVQEFTVPGRGVTATISGLKPGVDYTITVYAVTVTTTSVILYKPISINYRTEGSGCHHHHHH | 0.057 nM | 0.065 nM | 0.06 nM | 0.5 nM | 644 nM | 0.12 nM |  |  | 
